Values of other authors as cited in patent US6518244B2, “Combinations of heparin cofactor II agonist and platelet IIb/IIIa antagonist, and uses thereof” (IntimaX Corporation, priority 2000, dated 2003).

Conditions: recipients of hirudin; cited from Huhle et al, Br. J. Haematol. (1999)

hirudin
recipients in whom anti-hirudin antibodies are elicited: 74%
